Measured values: article PMC9069674, “Synthesis and Evaluation of Technetium-99m-Labeled pH (Low) Insertion Peptide Variant 7 for Early Diagnosis of MDA-MB-231 Triple-Negative Breast Cancer by Targeting the Tumor Microenvironment” (Frontiers in Oncology, 2022)

Assays:
MDA-MB-231 cells = assay: Binding of labeled peptides to MDA-MB-231 cells at different pH values; type: cell-based, human; conditions: n=3
Description: a. When MDA-MB-231 cells grew to more than 90% confluence, they were digested. The cell concentration was adjusted to approximately 1.0 × 10^5 cells/mL, and 1 mL of the cell solution was added to each well of a 12-well plate and cultured overnight in a 37°C cell incubator.
b. The medium was discarded, and the cells were washed with PBS twice. Then, 2 mL of fresh medium and 37 kBq ^99mTc-pHLIP (Var7) or ^99mTc-kVar7 (20-30 μL) were added to each well. We adjusted the pH values of the wells to four levels (pH 7.4, 7.0, 6.5, and 6.0).
c. After culturing for 30, 60, 90, 120, and 180 min, the supernatant was aspirated into a supernatant tube, and each well was washed two times with PBS at the corresponding pH (7.4, 7.0, 6.5, or 6.0). The cleaning solution was also added into the supernatant tube. The cells were digested fully with 0.25% trypsin, and the cell suspension was aspirated into a cell tube and washed twice with PBS. The cleaning solution was also added to the cell tube. A γ counter was applied to measure the radioactivity count of the cell tube (B) and supernatant tube (F). The cell-binding fraction of ^99mTc-pHLIP (Var7) or ^99mTc-kVar7 = B/(B+F) × 100%.

MDA-MB-231 tumors [1] = tested on: MDA-MB-231 tumors; set-up: species or system BALB/c nude mice; conditions: mouse, in vivo
Description: (§1) Animal experiments were approved by the ethics committee of Qingdao University, and the management of animals followed ethical standards. We built an MDA-MB-231 tumor model using four- to- five-week-old female BALB/c nude mice (Shanghai SLAC Laboratory Animal Co., Ltd, China). To do so, 0.1 mL of a cell suspension (50 µL PBS + 50 µL Matrigel) containing 1 × 10^6 MDA-MB-231 cells was subcutaneously inoculated into the right axilla of each mouse.
When tumor diameters reached 0.8–1.0 cm, 24 tumor-bearing nude mice were selected for an in vivo biodistribution experiment. Each nude mouse was injected with approximately 1480 kBq/200 μL ^99mTc-pHLIP (Var7) or ^99mTc-kVar7 through the tail vein. The mice were sacrificed humanely 1 h, 2 h, 4 h, and 6 h after injection, and their tissues and organs, such as the brain, heart, lung, liver, kidney, stomach, small intestine, blood, muscle, bone, and tumor, were weighed and measured for their radioactivity count. The results are expressed as the percentage of injected dose per gram of tissue (%ID/g).

MDA-MB-231 tumors [2] = type: in vivo, BALB/c nude mice; conditions: 1, 2, 4, and 6 h after tail vein injection of about 11.1 MBq/200 μL, n = 3
Description: as §1
When tumor diameters reached 0.8–1.0 cm, six tumor-bearing nude mice were selected for imaging. Each nude mouse was injected with approximately 11.1 MBq/200 μL ^99mTc-pHLIP (Var7) or ^99mTc-kVar7 through the tail vein. The tumor-bearing mice were anesthetized with 2% isoflurane at 1 h, 2 h, 4 h, and 6 h after injection and were fixed on the imaging bed of a small-animal SPECT/CT imaging system in the prone position. A pinhole collimator was applied. The main parameters were a matrix size of 256 × 256, magnification power of 1.45, and acquisition time at each time point of 10 min.

[3] = In vitro stability in PBS at room temperature (radiochemical purity by TLC); type: physicochemical; conditions: room temperature (25°C), 24 h after labeling, TLC on polyamide layer with acetonitrile
Description: (§2) The radiochemical purity of ^99mTc-pHLIP (Var7) and ^99mTc-kVar7 was determined by thin-layer chromatography (TLC). A thin polyamide layer was used as the stationary phase, and acetonitrile was used as the developing solvent. A sufficient amount of the labeled product was aspirated through a capillary pipette and spotted at the origin of the thin polyamide layer. The thin polyamide layer was air-dried and vertically placed in a test tube with developing solvent. The saturated thin polyamide layer was removed, dried, and placed on the TLC scanner for testing.
(§3) ^99mTc-pHLIP (Var7) and ^99mTc-kVar7 were placed in PBS at room temperature (25°C) and in fresh human serum at 37°C. Samples were taken to test the radiochemical purity at 1, 4, 6, and 24 h after labeling.

[4] = type: in vitro ADME, human
Description: as §2, §3

Substance	binding fraction to MDA-MB-231 cells (MDA-MB-231 cells; all tested pH values (6.0, 6.5, 7.0, and 7.4), each time point (30, 60, 90, 120, and 180 min))	blood clearance (MDA-MB-231 tumors [1])	tumor/nontumor (T/NT) ratio, trend over time (MDA-MB-231 tumors [1])	SPECT/CT imaging of tumors (MDA-MB-231 tumors [2])	radiochemical purity in PBS at 24 h [3] [%]	radiochemical purity in fresh human serum at 24 h [4] [%]	binding fraction to MDA-MB-231 cells (MDA-MB-231 cells; pH 6.0, 180 min, 37 kBq per well, γ counter, B/(B+F) × 100%, mean ± SD) [%]	binding fraction to MDA-MB-231 cells (MDA-MB-231 cells; pH 6.5, 180 min, 37 kBq per well, γ counter, B/(B+F) × 100%, mean ± SD) [%]	binding fraction to MDA-MB-231 cells (MDA-MB-231 cells; pH 7.0, 180 min, 37 kBq per well, γ counter, B/(B+F) × 100%, mean ± SD) [%]	binding fraction to MDA-MB-231 cells (MDA-MB-231 cells; pH 7.4, each time point (30, 60, 90, 120, and 180 min))
GaGG-GABA-ACEEQNPWARYLKWLFPTKTLLLKL-NH2 [^99mTc-kVar7, technetium-99m-labeled control peptide kVar7, pH-insensitive, with N4 chelating group and GABA spacer, reference compound]	remained low	slow blood clearance	no significant increasing trend	not imaged	> 99	> 96				
GaGG-GABA-ACEEQNPWARYLEWLFPTETLLLEL-NH2 [^99mTc-pHLIP (Var7)]		slow blood clearance	increased over time	clearly imaged at each time point	> 99	> 96	3.33 ± 0.12	3.02 ± 0.04	2.87 ± 0.03	remained low
